Test results as given in paper PMC4446446 (Nucleic Acids Research, 2015).

T1: SDR5C1, wild type, N-terminally His-tagged (human), Q99714
T1 chain: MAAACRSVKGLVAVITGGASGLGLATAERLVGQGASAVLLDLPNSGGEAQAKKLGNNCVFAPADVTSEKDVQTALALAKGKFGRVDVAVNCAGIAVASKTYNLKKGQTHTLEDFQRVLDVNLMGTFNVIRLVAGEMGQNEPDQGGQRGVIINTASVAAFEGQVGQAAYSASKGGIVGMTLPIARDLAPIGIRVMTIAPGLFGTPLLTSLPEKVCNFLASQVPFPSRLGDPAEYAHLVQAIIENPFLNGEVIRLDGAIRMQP

B1: SDR5C1, wild type, N-terminally His-tagged, Q99714 1-261 (enzyme)
chain: MAAACRSVKGLVAVITGGASGLGLATAERLVGQGASAVLLDLPNSGGEAQAKKLGNNCVFAPADVTSEKDVQTALALAKGKFGRVDVAVNCAGIAVASKTYNLKKGQTHTLEDFQRVLDVNLMGTFNVIRLVAGEMGQNEPDQGGQRGVIINTASVAAFEGQVGQAAYSASKGGIVGMTLPIARDLAPIGIRVMTIAPGLFGTPLLTSLPEKVCNFLASQVPFPSRLGDPAEYAHLVQAIIENPFLNGEVIRLDGAIRMQP
B2: SDR5C1 R130C, N-terminally His-tagged (enzyme)
chain: MAAACRSVKGLVAVITGGASGLGLATAERLVGQGASAVLLDLPNSGGEAQAKKLGNNCVFAPADVTSEKDVQTALALAKGKFGRVDVAVNCAGIAVASKTYNLKKGQTHTLEDFQRVLDVNLMGTFNVICLVAGEMGQNEPDQGGQRGVIINTASVAAFEGQVGQAAYSASKGGIVGMTLPIARDLAPIGIRVMTIAPGLFGTPLLTSLPEKVCNFLASQVPFPSRLGDPAEYAHLVQAIIENPFLNGEVIRLDGAIRMQP
B3: SDR5C1 N247S, N-terminally His-tagged (enzyme)
chain: MAAACRSVKGLVAVITGGASGLGLATAERLVGQGASAVLLDLPNSGGEAQAKKLGNNCVFAPADVTSEKDVQTALALAKGKFGRVDVAVNCAGIAVASKTYNLKKGQTHTLEDFQRVLDVNLMGTFNVIRLVAGEMGQNEPDQGGQRGVIINTASVAAFEGQVGQAAYSASKGGIVGMTLPIARDLAPIGIRVMTIAPGLFGTPLLTSLPEKVCNFLASQVPFPSRLGDPAEYAHLVQAIIENPFLSGEVIRLDGAIRMQP
B4: SDR5C1 R226Q, N-terminally His-tagged (enzyme)
chain: MAAACRSVKGLVAVITGGASGLGLATAERLVGQGASAVLLDLPNSGGEAQAKKLGNNCVFAPADVTSEKDVQTALALAKGKFGRVDVAVNCAGIAVASKTYNLKKGQTHTLEDFQRVLDVNLMGTFNVIRLVAGEMGQNEPDQGGQRGVIINTASVAAFEGQVGQAAYSASKGGIVGMTLPIARDLAPIGIRVMTIAPGLFGTPLLTSLPEKVCNFLASQVPFPSQLGDPAEYAHLVQAIIENPFLNGEVIRLDGAIRMQP
B5: SDR5C1 K172A, N-terminally His-tagged (enzyme)
chain: MAAACRSVKGLVAVITGGASGLGLATAERLVGQGASAVLLDLPNSGGEAQAKKLGNNCVFAPADVTSEKDVQTALALAKGKFGRVDVAVNCAGIAVASKTYNLKKGQTHTLEDFQRVLDVNLMGTFNVIRLVAGEMGQNEPDQGGQRGVIINTASVAAFEGQVGQAAYSASAGGIVGMTLPIARDLAPIGIRVMTIAPGLFGTPLLTSLPEKVCNFLASQVPFPSRLGDPAEYAHLVQAIIENPFLNGEVIRLDGAIRMQP
B6: SDR5C1 P210S, N-terminally His-tagged (enzyme)
chain: MAAACRSVKGLVAVITGGASGLGLATAERLVGQGASAVLLDLPNSGGEAQAKKLGNNCVFAPADVTSEKDVQTALALAKGKFGRVDVAVNCAGIAVASKTYNLKKGQTHTLEDFQRVLDVNLMGTFNVIRLVAGEMGQNEPDQGGQRGVIINTASVAAFEGQVGQAAYSASKGGIVGMTLPIARDLAPIGIRVMTIAPGLFGTPLLTSLSEKVCNFLASQVPFPSRLGDPAEYAHLVQAIIENPFLNGEVIRLDGAIRMQP
B7: TRMT10C, native (untagged) (enzyme)
chain: MSSKIPAVTYPKNESTPPSEELELDKWKTTMKSSVQEECVSTISSSKDEDPLAATREFIEMWRLLGREVPEHITEEELKTLMECVSNTAKKKYLKYLYTKEKVKKARQIKKEMKAAAREEAKNIKLLETTEEDKQKNFLFLRLWDRNMDIAMGWKGAQAMQFGQPLVFDMAYENYMKRKELQNTVSQLLESEGWNRRNVDPFHIYFCNLKIDGALHRELVKRYQEKWDKLLLTSTEKSHVDLFPKDSIIYLTADSPNVMTTFRHDKVYVIGSFVDKSMQPGTSLAKAKRLNLATECLPLDKYLQWEIGNKNLTLDQMIRILLCLKNNGNWQEALQFVPKRKHTGFLEISQHSQEFINRLKKAKT

Tests used:
[1] = molecular target: T1, SDR5C1, wild type, N-terminally …; assay: native gel or EMSA; conditions: remark: other sources report otherwise
native gel or EMSA = molecular target: the molecule itself; assay: native gel or EMSA
SEC = molecular target: the molecule itself; assay: SEC
[2] = molecular target: B2; assay: pull-down
[3] = molecular target: B5; assay: pull-down
[4] = molecular target: B3; assay: pull-down
[5] = molecular target: B6; assay: pull-down
[6] = molecular target: B4; assay: pull-down

| Binder | Tetramerized SDR5C1 (percent) (native gel or EMSA) [%] | stoichiometry N (SEC) | further results |
| --- | --- | --- | --- |
| B1 | – | – | Tetramerized SDR5C1 (percent) [1]: 100% |
| B2 | 100 | 4 | – |
| B3 | 25.8 | – | – |
| B4 | 26 | – | – |
| B5 | 100 | 4 | – |
| B6 | 100 | 4 | – |
| B7 | – | – | Complexed TRMT10C (mass percentage of the complex) [2]: 28.7%; Complexed TRMT10C (mass percentage of the complex) [3]: 43%; Complexed TRMT10C (mass percentage of the complex) [4]: 9.3%; Complexed TRMT10C (mass percentage of the complex) [5]: 39.7%; Complexed TRMT10C (mass percentage of the complex) [6]: 14.3% |
